# Legend:
# Experiment in all cases: cell-based or functional assay
# [1] = target: HIV-1 Env of isolate 92HT593 (HIV-1)
# [2] = target: HIV-1 Env of clone RHPA (HIV-1)
# [3] = target: HIV-1 Env gp120 of virus WITO, on infected cells (HIV-1)
# [4] = target: HIV-1 Env of clone CH058 (HIV-1)
# [5] = target: HIV-1 Env of clone WITO (HIV-1)
# [6] = target: HIV-1 Env of isolate 92US657 (HIV-1)
# [7] = target: HIV-1 Env of clone THRO (HIV-1)
# [8] = target: HIV-1 Env of isolate 92US712 (HIV-1)
# [9] = target: HIV-1 Env of clone CH077 (HIV-1)
# [10] = target: HIV-1 Env of clone CH106 (HIV-1)
# [11] = target: HIV-1 Env of strain BaL (HIV-1)
# [12] = target: HIV-1 Env of isolate 8318 (HIV-1)
substance,measurement,setting,value
PGT-121.60 (antibody),"IC50 (neutralization, CEM.NKr.CCR5.LucR based assay)",[1],0.024 µg/mL
same,"IC50 (neutralization, CEM.NKr.CCR5.LucR based assay)",[2],0.534 µg/mL
same,killing EC50; HIV-infected CD4 T cells (WITO); effector cells Eff Memory CD4,[3],> 10 µg/mL
same,killing EC50; HIV-infected CD4 T cells (WITO); effector cells Memory CD4,[3],> 10 µg/mL
same,killing EC50; HIV-infected CD4 T cells (WITO); effector cells Memory CD8,[3],> 10 µg/mL
same,killing EC50; HIV-infected CD4 T cells (WITO); effector cells γ Δ CD4,[3],0.36 µg/mL
same,killing EC50; HIV-infected CEM-NKr-CCR5-LucR CD4 T cells; PBMC donor 4176; virus WITO,[3],> 100 µg/mL
same,killing EC50; HIV-infected CEM-NKr-CCR5-LucR CD4 T cells; PBMC donor 4288; virus WITO,[3],0.767 µg/mL
same,killing Emax; HIV-infected CD4 T cells (WITO); effector cells Eff Memory CD4,[3],0%
same,killing Emax; HIV-infected CD4 T cells (WITO); effector cells Memory CD4,[3],9%
same,killing Emax; HIV-infected CD4 T cells (WITO); effector cells Memory CD8,[3],9%
same,killing Emax; HIV-infected CD4 T cells (WITO); effector cells γ Δ CD4,[3],18%
same,killing Emax; HIV-infected CEM-NKr-CCR5-LucR CD4 T cells; PBMC donor 4176; virus WITO,[3],0%
same,killing Emax; HIV-infected CEM-NKr-CCR5-LucR CD4 T cells; PBMC donor 4288; virus WITO,[3],46%
same,"IC50 (neutralization, CEM.NKr.CCR5.LucR based assay)",[4],0.063 µg/mL
same,"IC50 (neutralization, CEM.NKr.CCR5.LucR based assay)",[5],1.05 µg/mL
same,"IC50 (neutralization, CEM.NKr.CCR5.LucR based assay)",[6],0.168 µg/mL
same,"IC50 (neutralization, CEM.NKr.CCR5.LucR based assay)",[7],> 100 µg/mL
same,"IC50 (neutralization, CEM.NKr.CCR5.LucR based assay)",[8],0.019 µg/mL
same,"IC50 (neutralization, CEM.NKr.CCR5.LucR based assay)",[9],> 100 µg/mL
same,"IC50 (neutralization, CEM.NKr.CCR5.LucR based assay)",[10],> 100 µg/mL
same,"IC50 (neutralization, CEM.NKr.CCR5.LucR based assay)",[11],0.015 µg/mL
same,"IC50 (neutralization, CEM.NKr.CCR5.LucR based assay)",[12],0.048 µg/mL
